Assay results from PMC6152284, “Cloning and Characterization of Two Iridoid Synthase Homologs from Swertia Mussotii” (Molecules : A Journal of Synthetic Chemistry and Natural …, 2017).

B1: SmIS2 (Swertia mussotii) (protein)
chain: MSWWWTGAVAAAREKVYDERPKTSPSVALIIGVTGIVGNSLADILPLSDTPGGPWKVYGVARRPRPAWSEDHPVEYIQLDVYNAKETQSKLSPLTDITHIFWTTWANRPTEAECCQVNGAMLQNVIDAVLPNAPNLSHICIQTGHKHYIGPFETFGKIKPHETPFIEDVPRLDVPNFYYTLEDITLETCKKKEGLTWSVHRPAVIFGFSPYSMMNLIGSLCVYAAICKHENVPFTYPGTKGAWNCYSVASDADLIAEHQIWASVDPYAKNEAYNCSNGDLFKWKSLWKVLAEQFDLEYVEFDENQDYVSLAERMKDKGPVWDEIVKQNKLTPTKLEEVATFWFADVIFSGECMLDSMSKSKEHGFLGFRDTTKSLLSVVGKMKAHKIVP
notes: pET-28a, 6-His tags at N- and C-terminus (~46 kDa); E. coli BL21(DE3), purified
B2: SmIS1 (Swertia mussotii) (protein)
chain: MSWWWKRSVQAQNLPEKNQPNGVAETAGRYESVALVVGVTGIVGSSLAQVLKLPDTPGGPWKVYGVARRPCPAWLAKFHVEYIQCDVSNTEEAKTKLSPLKDVTHIFYVSWIGSEDCETNAVMFKNILYNIIPVAPNLKHISLQTGSKHYFGIFEEGSEAVPHESPYTEDLPRLNIPNFYHDLEDILFEETAKHGLTWCVQRPALIFGFSPCSLMNIVSTLSIYATICKHEKKPLVYPGSKASWNCYVDGADADLAAEHHIWAAVDPKAKNQVFNVKNGDVFKWKNVWKMLADEFEMEMVGYIEGNEQVSMAELMKDKDGVWDEIVKKHKLEDTKLKEIAAFWFADIAFSCVDLVMSVTKSREFGFLGFRDSMKSFKSCIHKMRDFKFIP
notes: pETMALc-H, N-terminal MBP fusion with 10 His (~88 kDa); E. coli BL21(DE3), purified

Legend:
purified protein [1] = substrate: C/C(C=O)=C\CC/C(C)=C/C=O; test: purified protein; type: biochemical, Swertia mussotii; settings: co-substrate NADPH, 20 mM MOPS pH 7.0, 40 °C, substrate stock contained 8-oxoneral isomer
purified protein [2] = substrate: NC(=O)C1=CN([C@@H]2O[C@H](COP(=O)(O)OP(=O)(O)OC[C@H]3O[C@@H](n4cnc5c(N)ncnc54)[C@H](OP(=O)(O)O)[C@@H]3O)[C@@H](O)[C@H]2O)C=CC1; test: purified protein; type: biochemical, Swertia mussotii; settings: co-substrate 8-oxogeranial, 20 mM MOPS pH 7.0, 40 °C, varied: cofactor

Protein	Km (purified protein [1]; His-tagged) [µM]	kcat (purified protein [1]; His-tagged) [s⁻¹]	kcat/Km (purified protein [1]; His-tagged) [M⁻¹ s⁻¹]	Km (purified protein [2]; His-tagged) [µM]	kcat (purified protein [2]; His-tagged) [s⁻¹]	kcat/Km (purified protein [2]; His-tagged) [M⁻¹ s⁻¹]	Km (purified protein [1]; MBP fusion) [µM]	kcat (purified protein [1]; MBP fusion) [s⁻¹]	kcat/Km (purified protein [1]; MBP fusion) [M⁻¹ s⁻¹]	Km (purified protein [2]; MBP fusion) [µM]	kcat (purified protein [2]; MBP fusion) [s⁻¹]	kcat/Km (purified protein [2]; MBP fusion) [M⁻¹ s⁻¹]
B1	54.37 ± 4.29	0.034 ± 0.001	629 ± 75.9	41.83 ± 7.2	0.026 ± 0.01	628 ± 105	–	–	–	–	–	–
B2	–	–	–	–	–	–	7.29 ± 1.59	0.11 ± 0.007	15600 ± 4350	77.94 ± 6.03	0.135 ± 0.01	1732 ± 11.3
